Test results taken from patent publication US20190085323A1 (published 2019).

Tests used:
[1] = target: T1, HER2 on the surface of N87 gastric cancer cells (human, UniProt P04626 23-1255); test: flow cytometry on N87 cells, 0.5 nM scFv detected with AL1-RFP
T1 construct: whole, on cells; also called cell surface HER2

[2] = target: T1, HER2 on the surface of N87 gastric …; test: cell-based or functional assay
[3] = target: HER2 on the surface of N87 gastric cancer cells (human) (UniProt P04626); test: cell-based or functional assay
[4] = target: HER2 on the surface of N87 gastric cancer cells (human) (UniProt P04626); test: flow cytometry on N87 cells, 0.5 nM scFv detected with AL1-RFP
[5] = target: T2, HER2-ECD (recombinant extracellular domain of human epidermal growth factor receptor 2) (human, UniProt P04626 23-652); test: ELISA, IgG1 titrated on immobilized HER2-ECD
T2 construct: extracellular domain; Recombinant HER2-ECD coated on ELISA plates

| Binder | MFI [1] | % cell viability (AL1) [2] [%] | % cell viability (AL2) [2] [%] | % cell viability (AL1) [3] [%] | % cell viability (AL2) [3] [%] | MFI [4] | EC50 [5] [ng/mL] |
| --- | --- | --- | --- | --- | --- | --- | --- |
| 35CPT-9 source scFv (scFv) DIQMTQSPSSLSASVGGRVTITCKSNQNLLDSYGRTYLYWYQQKPGKAPKLLISGTSGLYSGVPSRFSGSGSGTDFTLTISSLQPEDFATYYCFQGYDYPFTFGQGTKVEIKREVQLVESGGGLVQPGGSLRLSCKASGYTFGDYGMHWVRQAPGKGLEWVAHIAPNDGITHYADSVKGRFTISADTSKNTAYLQMNSLRAEDTAVYYCARGYGWYDHVMDYWGQGTLVTVSSASAAA | 287 | 69.8 | 17.9 |  |  |  |  |
| 35WYK-16 source scFv (scFv) DIQMTQSPSSLSASVGDRVTITCKSNQNLLLSNGRTFLYWYQQKPGKAPKLLIYDVSDLYSGVPSRFSGSGSGTDFTLTISSLQPEDFATYYCFQGNNFPYTFGQGTKVEIKREVQLVESGGGLVQPGGSLRLSCKASGYTFGTSWMHWVRQAPGKGLEWVAGITPYYGLTFYADSVKGRFTISADTSKNTAYLQMNSLRAEDTAVYYCARGNLDYWGQGTLVTVSSASAAA | 299 | 72.2 | 41.4 |  |  |  |  |
| 29TYL#10 source scFv (scFv, V domains shown, not shown: large carriers, VL-linker-VH scFv; linker and E-tag not given) VH: EVQLVESGGGLVQPGGSLRLSCKASGYTFTDGSMHWVRQAPGKGLEWVAYINPYFGDTYYADSVKGRFTISADTSKNTAYLQMNSLRAEDTAVYYCARGWIDYWGQGTLVTVSS VL: DIQMTQSPSSLSASVGDRVTITCKSNQNLLLSNGRTFLYWYQQKPGKAPKLLIYGTSYLYSGVPSRFSGSGSGTDFTLTISSLQPEDFATYYCFQANHLPWTFGQGTKVEIKR |  |  |  | 79.9 | 64.8 | 444 |  |
| 29TYL#10 IgG1 (antibody, V domains shown) VH: EVQLVESGGGLVQPGGSLRLSCKASGYTFTDGSMHWVRQAPGKGLEWVAYINPYFGDTYYADSVKGRFTISADTSKNTAYLQMNSLRAEDTAVYYCARGWIDYWGQGTLVTVSS VL: DIQMTQSPSSLSASVGDRVTITCKSNQNLLLSNGRTFLYWYQQKPGKAPKLLIYGTSYLYSGVPSRFSGSGSGTDFTLTISSLQPEDFATYYCFQANHLPWTFGQGTKVEIKR |  |  |  |  |  |  | 3.8 |
| 2835-28 source scFv (scFv, V domains shown, not shown: large carriers, VL-linker-VH scFv; linker and E-tag not given) VH: EVQLVESGGGLVQPGGSLRLSCKASGYTFTDGSMHWVRQAPGKGLEWVAYINPYFGDTYYADSVKGRFTISADTSKNTAYLQMNSLRAEDTAVYYCARGWIDYWGQGTLVTVSS VL: DIQMTQSPSSLSASVGDRVTITCKSNQNLLLSNGRTFLYWYQQKPGKAPKLLIYGTSYLYSGVPSRFSGSGSGTDFTLTISSLQPEDFATYYCFQANHLPWTFGQGTKVEIKR |  |  |  | 52.8 | 29.9 | 495 |  |
| 29TYL#1 source scFv (scFv) DIQMTQSPSSLSASVGDRVTITCKSNQNLLLSNGWTFLNWYQQKPGKAPKLLISRISDLYSGVPSRFSGSGSGTDFTLTISSLQPEDFATYYCFQASDFPYTFGQGTKVEIKREVQLVESGGGLVQPGGSLRLSCKASGYTFSTGSMHWVRQAPGKGLEWVAHINPHFGLTLYADSVKGRFTISADTSKNTAYLQMNSLRAEDTAVYYCAGSGFDYWGQGTLVTVSSASAAA | 491 | 67.5 | 32.7 |  |  |  |  |
| 31YCM#3 IgG1 (antibody, V domains shown) VH: EVQLVESGGGLVQPGGSLRLSCKASGYTFARSGMHWVRQAPGKGLEWVAGISPNYGLTHYADSVKGRFTISADTSKNTAYLQMNSLRAEDTAVYYCARGFGVLDYWGQGTLVTVSS VL: DIQMTQSPSSLSASVGDRVTITCKSNQNLLISGNQWTFLNWYQQKPGKAPKLLIYDVSRLYSGVPSRFSGSGSGTDFTLTISSLQPEDFATYYCYQGSDFPGTFGQGTKVEIKR |  |  |  |  |  |  | 7.3 |
| 30CHS-13 source scFv (scFv) DIQMTQSPSSLSASVGDRVTITCKSNQNLLDSGNQRTYLNWYQQKPGKAPKLLIYHTSRLYSGVPSRFSGSGSGTDFTLTISSLQPEDFATYYCSQTFRHPGTFGQGTKVEIKREVQLVESGGGLVQPGGSLRLSCKASGYTFGHYSMFWVRQAPGKGLEWVASIYPHYGHTYYADSVKGRFTISADTSKNTAYLQMNSLRAEDTAVYYCARGHWLDYWGQGTLVTVSSASAAA | 93 | 75.8 | 77.7 |  |  |  |  |
| 30CHS-12 source scFv (scFv) DIQMTQSPSSLSASVGDRVTITCKSNQNLLDSGNQGTFLNWYQQKPGKAPKLLIFGTSHLYSGVPSRFSGSGSGTDFTLTISSLQPEDFATYYCSQSTDLPFTFGQGTKVEIKREVQLVESGGGLVQPGGSLRLSCAASGFTISDYWIHWVRQAPGKGLEWVAGINPYYGVTVYADSVKGRFTISADTSKNTAYLQMNSLRAEDTAVYYCARGGVLDYWGQGTLVTVSSASAAA | 198 | 64.9 | 61.7 |  |  |  |  |
| 35WYK-9 source scFv (scFv) DIQMTQSPSSLSASVGDRVTITCKSNQNLLLSNGRTFLHWYQQKPGKAPKLLIFDVSNLYSGAPSRFSGSGSGTDFTLTISSLQPDDFATYYCSQTSRFPWTFGQGTKVEIKREVQLVESGGGLVQPGGSLRLSCKASGYTFSHWGMHWVRQAPGKGLEWVAGIYPYFGNTYYADSVKGRFTISADTSKNTAYLQMNSLRAEDTAVYYCARGLLDYWGQGTLVTVSSASAAA | 265 | 84.7 | 80.9 |  |  |  |  |
| 30CHS-41 source scFv (scFv) DIQMTQSPSSLSASVGDRVTITCKSNQNLLDSGHQRTYLNWYQQKPGKAPKLLIYHTSLLYSGVPSRFSGSGSGTDFTLTISSLQPEDFATYYCSQTFRHPGTFGQGTKVEIKREVQLVESGGGLVQPGGSLRLSCKASGYTFTHWGMHWVRQAPGKGLEWVARINPYYGLTHYADSVKGRFTISADTSKNTAYLQMNSLRAEDTAVYYCARGHWLDYWGQGTLVTVSSASAAA | 153 | 77.6 | 71.6 |  |  |  |  |
| 31YCM#5 source scFv (scFv) DIQMTQSPSSLSASVGDRVTITCKSNQNLLDSHGWTYLHWYQQKPGKAPKLLIYDASNLYSGVPSRFSGSGSGTDFTLTISSLQPEDFATYYCSQSYRLPYTFGQGTKVEIKREVQLVESGGGLVQPGGSLRLSCKASGYTFGGSYMHWVRQAPGKGLEWVARIYPHYGYTYYADSVKGRFTISADTSKNTAYLQMNSLRAEDTAVYYCARGDDHFDYWGQGTLVTVSSASAAA | 165 | 89.5 | 71.8 |  |  |  |  |
| 31YCM#3 source scFv (scFv) DIQMTQSPSSLSASVGDRVTITCKSNQNLLISGNQWTFLNWYQQKPGKAPKLLIYDVSRLYSGVPSRFSGSGSGTDFTLTISSLQPEDFATYYCYQGSDFPGTFGQGTKVEIKREVQLVESGGGLVQPGGSLRLSCKASGYTFARSGMHWVRQAPGKGLEWVAGISPNYGLTHYADSVKGRFTISADTSKNTAYLQMNSLRAEDTAVYYCARGFGVLDYWGQGTLVTVSSASAAA | 177 | 96.4 | 91.5 |  |  |  |  |
